1 molecule from patent CN101724074A (SUZHOU IND PARK CHENJIAN ANTIB, dated 2010) can be followed below.

The target of the test is T1, 重组人ATP5B (rhATP5B) (human, UniProt P06576 48-529).
T1 construct: mature; Mr about 55 000; also called rhATP5B蛋白; rhATP5B抗原; not shown: His-tag and vector-derived residues of pET28a(+) (insert cloned SacI/HindIII)
Kind of test: ELISA on culture supernatant of CHO-DG44 transfectants.

T1 sequence (P06576 48-529): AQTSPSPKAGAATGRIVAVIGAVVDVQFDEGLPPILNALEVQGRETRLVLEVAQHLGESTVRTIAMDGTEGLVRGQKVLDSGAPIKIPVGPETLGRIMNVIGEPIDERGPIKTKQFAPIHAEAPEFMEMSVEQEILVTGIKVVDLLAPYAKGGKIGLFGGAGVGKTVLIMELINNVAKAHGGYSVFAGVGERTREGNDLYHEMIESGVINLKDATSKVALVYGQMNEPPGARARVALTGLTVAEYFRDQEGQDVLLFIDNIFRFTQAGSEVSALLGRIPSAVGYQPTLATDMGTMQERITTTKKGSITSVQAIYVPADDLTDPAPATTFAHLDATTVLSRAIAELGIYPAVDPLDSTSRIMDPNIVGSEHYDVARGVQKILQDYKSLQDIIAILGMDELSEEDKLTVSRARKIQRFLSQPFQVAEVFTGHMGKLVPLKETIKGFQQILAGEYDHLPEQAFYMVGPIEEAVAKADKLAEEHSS

B1: 抗ATP5B人鼠嵌合抗体c7A8 (antibody, human IgG1, kappa, V domains shown)
VH: EVQLLESGAELVKPGASVKLSCTASGFNIKDAYMYWVRQRPEQGLEWIGRIDPANDNTKYDPKFQGRATITADTSSNTAYLQLSSLTSEDTAVHYCARFYSVYAMDYWGQGTSVTVSS
VL: TQSPAIMSASPGEKVTITCSASSSVSYMHWFQQQPGTSPKLWVYTTSNLAFGVPARFSGSGPGTSYSLTISRMEAEDAATYYCQQRSSYPLTFGAGTKLELTR
notes: Chimeric IgG1/kappa: signal peptide and variable region of m7A8 joined to human IgG1 constant regions; tested as culture supernatant of transfected CHO-DG44 clone E1; also called 血管抑素受体β亚基人源化嵌合抗体; 人源化嵌合抗体
Take B1: the binding result is “binds”.
